Laboratory results published in publication PMC4086636.

These substances were tested against domain 4 of the anthrax protective antigen (Bacillus anthracis) (UniProt P13423) (assay: cross-linking).
M18 scFv with L-DOPA at position H_D54 was tested, and the Experimental Crosslinking (%) was 30.4%.
M18 scFv with L-DOPA at position H_S31 was tested, and the Experimental Crosslinking (%) was 51.9%.
Substance M18 scFv with L-DOPA at position H_Y52 has an Experimental Crosslinking (%) of 19.7%.
M18 scFv with L-DOPA at position H_W33 gave an Experimental Crosslinking (%) of 13.9%.
M18 scFv with L-DOPA at position H_G53 was tested, and the Experimental Crosslinking (%) was 40.3%.
Work on M18 scFv with L-DOPA at position H_D56 yielded an Experimental Crosslinking (%) of 36.2%.
M18 scFv with L-DOPA at position H_N58 was tested, and the Experimental Crosslinking (%) was 24.4%.
M18 scFv with L-DOPA at position H_G55 gave an Experimental Crosslinking (%) of 5.1%.
